{"source": "patent US20190352426A1", "about": "“PLAZOMICIN ANTIBODIES AND METHODS OF USE” (Achaogen, Inc., priority 2016, published 2019)", "molecules": {"B1": {"name": "MC335: murine monoclonal anti-plazomicin antibody; heavy chain variable SEQ ID NO 66, light chain variable SEQ ID NO 70 (antibody, listed as Mus musculus, V domains shown)", "VH": "AGQLKESGPGLVKPSQSLSLTCTVTGSSITSDYAWNWIRQFPGNKLEWMGYISQSGSTSYNPSLKSRISITRDTSKNQFFLQLNSVTTEDTATYYCTGNSYTMDYWGQGTSVTVSS", "VL": "DIVMTQSPKFLLVSAGDRVTITCKASQSVSNDVAWYQQKPGQSPKLLISYASNRYTGVPDRFTGSGYGTDFTFTITTVQAEDLAVYFCQQDYSSPWTFGGGTKLEIK"}, "B2": {"name": "MC331: murine monoclonal anti-plazomicin antibody; heavy chain variable SEQ ID NO 42, light chain variable SEQ ID NO 46 (antibody, listed as Mus musculus, V domains shown)", "VH": "QVQLQQSGAELAKPGASVKMSCKASGNTFTSYWMHWIKQRPGQGLEWIGYIDPSTGYTEYNQKFKDRATLTADKSSNTAYMQLNSLTSEDSAVYYCTKSGKWDDYWGQGTTLTVSS", "VL": "B1 VL with D1S, S7T, S30T, S49C, T76S, Y92H, S93T, W96F"}, "B3": {"name": "MC337: murine monoclonal anti-plazomicin antibody; heavy chain variable SEQ ID NO 82, light chain variable SEQ ID NO 86 (antibody, listed as Mus musculus, V domains shown)", "VH": "QVQLQQPGPELVKPGASVKMSCKASGYTFTSYVIHWVKQKPGQGLEWIGYINPFNDGTKYNEKFKGKATLTSDKSSSTAYMELSSLTSEDSAVYYCEGVGSSGSDYWGQGTTLTVSS", "VL": "B1 VL with S7T, S30R, T76S, V85I, W96Y"}, "B4": {"name": "MC329: murine monoclonal anti-plazomicin antibody from hybridoma MC329; heavy chain variable SEQ ID NO 22, light chain SEQ ID NO 26, 30 (antibody, listed as Mus musculus, V domains shown)", "VH": "SDVQLQESGPGLVKPSQSLSLTCTVTGYSITTNYAWNWIRQFPGHKLEWMGYITSSGRTSYNPPLKSRISITRDTSRSQFFLRLNSVTTEDTATYFCTHTTAYLDYWGQGTTLTVSS", "VL 1": "B1 VL with D1S, S7T, T72A, T76N, V85F, W96Y", "VL 2": "DIKMTQSPSSMYASLGERVTITCKASQDIKSYLSWYQQIPWKSPKTLIYYATSLADGVPSRFSGSGSGQDYSLTISSLESDDTATYYCLQHGESPLTFGAGTKLELK"}, "B5": {"name": "MC340: murine monoclonal anti-plazomicin antibody; heavy chain variable SEQ ID NO 98, light chain variable SEQ ID NO 102 (antibody, listed as Mus musculus, V domains shown)", "VH": "QVTLKESGGGLVQPGGSMKISCVVSGLTFRNYWMSWVRQSPEKGLEWVAEIRLKSDNYATHYAESVKGKFTISRDDSKSRLYLQMNSLRAEDTGIYYCTVYGKDFDYWGQGTTLTVSS", "VL": "B1 VL with I2V, S7T, T76S"}, "B6": {"name": "MC330: murine monoclonal anti-plazomicin antibody; heavy chain variable SEQ ID NO 34, light chain variable SEQ ID NO 38 (antibody, listed as Mus musculus, V domains shown)", "VH": "SDVQLQESGPGLVTPSQSLSLTCTVTGYSITSAYAWNWIRQFPGNKLEWLGYINSSGSTSYHPSLKGRISITRDTSKNQFFLQLNSVTTEDTATYYCTHTTSYFDYWGQGTTLTVSS", "VL": "B1 VL with D1S, S7T, L12I, T74A, W96Y, L104V"}, "B7": {"name": "MC336: murine monoclonal anti-plazomicin antibody; heavy chain variable SEQ ID NO 74, light chain variable SEQ ID NO 78 (antibody, listed as Mus musculus, V domains shown)", "VH": "B1 VH with A1Q, G2M, K5Q, S27D, Q54Y, T71S, T88I", "VL": "B1 VL with D1S, S7T, K45N, T76S, S93I"}, "B8": {"name": "MC339: murine monoclonal anti-plazomicin antibody; heavy chain variable SEQ ID NO 90, light chain variable SEQ ID NO 94 (antibody, listed as Mus musculus, V domains shown)", "VH": "QVQLVQSGPELVKPGASVKVSCKASGFSFTDYNMYWVKQSHGKSLEWIGYIDPYNGGTSYNQKFKGKATLTFDKSSSTAFMHLNSLTSEDSAVYYCASAGNYDDYWGQGTTLTVSS", "VL": "B1 VL with S7T, K45T, S49Y, T76S, S93T, W96Y"}, "B9": {"name": "MC334: murine monoclonal anti-plazomicin antibody; heavy chain variable SEQ ID NO 58, light chain variable SEQ ID NO 62 (antibody, listed as Mus musculus, V domains shown)", "VH": "QVQLQQSGAELMKPGASVKISCKATGYKFSRYWIEWVKESPGHGLEWIGEIFPGSDSTDYNEKFKGKATLTADSSSNTAYMQLSSLTSEDSAVYYCARDGGGLDEFAYWGQGTPVIVSA", "VL": "DVVVTQIPLSLSVSFGDQVSISCRSSQSLTNSYGYTYLSWYLHKPGQSPQLLIYGISNRFSGVPDRFSGSGSGTDFTLKISTIKPEDLGMYYCLQGTHQPYTFGGGTKLEIR"}, "B10": {"name": "MC332: murine monoclonal anti-plazomicin antibody; heavy chain variable SEQ ID NO 50, light chain variable SEQ ID NO 54 (antibody, listed as Mus musculus, V domains shown)", "VH": "B9 VH", "VL": "B9 VL with I7N"}}, "note": "Changes are numbered by the printed parent chain."}
{"experiment": "competitive ELISA on BSA-bromo-plazomicin coated plates, free sisomicin", "format": "binding", "details": "free sisomicin 0.013-270 μg/ml incubated with antibody at 0.05 nM, then added to BSA-bromo-plazomicin-coated ELISA plates", "procedure": "(§1) The purified antibodies were then analyzed for binding to BSA-plazomicin by ELISA (the tested concentrations of antibodies ranged from 0.0001 nM to 100 nM). (FIG. 1A) and competitive ELISA (FIG. 1B) on BSA-bromo-plazomicin coated ELISA plates. For competitive ELISAs, free aminoglycosides (plazomicin, gentamicin, amikacin, and sisomicin) at concentrations; 270 μg/ml, 90 μg/ml 30 μg/ml, 10 μg/ml, 3.3 μg/ml, 1.1 μg/ml, 0.4 μg/ml, 0.12 μg/ml, 0.04 μg/ml and 0.013 μg/ml were incubated with one of 10 purified monoclonal antibodies derived from the cell cultures described above; MC329, MC330, MC331, MC332, MC334, […], […], MC337, MC339, MC340 at 0.05 nM concentration (FIG. 1B). The antibody/aminoglycoside solutions were then added to BSA-bromo-plazomicin-coated ELISA plates. Plates were washed to remove unbound antibody, and IC50 values (μg/mL) were determined for each aminoglycoside and are shown below in Table 5.", "units": {"Antibiotic IC50 Values for Aminoglycosides: Sisomicin": "µg/mL"}}
{"molecule": "B1", "Antibiotic IC50 Values for Aminoglycosides: Sisomicin": 69.0}
{"molecule": "B2", "Antibiotic IC50 Values for Aminoglycosides: Sisomicin": 83.0}
{"molecule": "B3", "Antibiotic IC50 Values for Aminoglycosides: Sisomicin": 16.1}
{"molecule": "B4", "Antibiotic IC50 Values for Aminoglycosides: Sisomicin": 83.0}
{"molecule": "B5", "Antibiotic IC50 Values for Aminoglycosides: Sisomicin": 153}
{"molecule": "B6", "Antibiotic IC50 Values for Aminoglycosides: Sisomicin": 9.9}
{"molecule": "B7", "Antibiotic IC50 Values for Aminoglycosides: Sisomicin": 37.6}
{"molecule": "B8", "Antibiotic IC50 Values for Aminoglycosides: Sisomicin": 24.4}
{"experiment": "competitive ELISA on BSA-bromo-plazomicin coated plates, free gentamicin", "format": "binding", "details": "free gentamicin 0.013-270 μg/ml incubated with antibody at 0.05 nM, then added to BSA-bromo-plazomicin-coated ELISA plates", "procedure": "as §1", "units": {"Antibiotic IC50 Values for Aminoglycosides: Gentamicin": "µg/mL"}}
{"molecule": "B2", "Antibiotic IC50 Values for Aminoglycosides: Gentamicin": 214.4}
{"molecule": "B3", "Antibiotic IC50 Values for Aminoglycosides: Gentamicin": 107.6}
{"molecule": "B4", "Antibiotic IC50 Values for Aminoglycosides: Gentamicin": 107.0}
{"molecule": "B6", "Antibiotic IC50 Values for Aminoglycosides: Gentamicin": 92.0}
{"molecule": "B7", "Antibiotic IC50 Values for Aminoglycosides: Gentamicin": "~106.1"}
{"molecule": "B8", "Antibiotic IC50 Values for Aminoglycosides: Gentamicin": "~101.7"}
{"experiment": "competitive ELISA on BSA-bromo-plazomicin coated plates, free plazomicin", "format": "binding", "details": "free plazomicin 0.013-270 μg/ml incubated with antibody at 0.05 nM, then added to BSA-bromo-plazomicin-coated ELISA plates", "procedure": "as §1", "units": {"Antibiotic IC50 Values for Aminoglycosides: Plazomicin": "µg/mL"}}
{"molecule": "B1", "Antibiotic IC50 Values for Aminoglycosides: Plazomicin": 0.59}
{"molecule": "B2", "Antibiotic IC50 Values for Aminoglycosides: Plazomicin": 0.43}
{"molecule": "B3", "Antibiotic IC50 Values for Aminoglycosides: Plazomicin": 0.06}
{"molecule": "B4", "Antibiotic IC50 Values for Aminoglycosides: Plazomicin": 0.43}
{"molecule": "B5", "Antibiotic IC50 Values for Aminoglycosides: Plazomicin": 19.0}
{"molecule": "B6", "Antibiotic IC50 Values for Aminoglycosides: Plazomicin": 0.02}
{"molecule": "B7", "Antibiotic IC50 Values for Aminoglycosides: Plazomicin": 0.25}
{"molecule": "B8", "Antibiotic IC50 Values for Aminoglycosides: Plazomicin": 0.12}
{"molecule": "B9", "Antibiotic IC50 Values for Aminoglycosides: Plazomicin": 0.72}
{"molecule": "B10", "Antibiotic IC50 Values for Aminoglycosides: Plazomicin": 0.94}
